Reference: US20200164032A1 (WASHINGTON UNIVERSITY, published 2020)

What was measured:
murine CCL2 = target: T1, murine CCL2 (mouse, UniProt P10148 24-148); test: SPR, mutant R17 on CM5 chip
T1 construct: also called mCCL2

murine CCL3 = target: T2, murine CCL3 (mouse, UniProt P10855 24-92)
T2 sequence: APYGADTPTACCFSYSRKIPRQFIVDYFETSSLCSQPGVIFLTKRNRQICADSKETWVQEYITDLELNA

[1] = target: CCL2 (species not given); test: SPR, R17 variant on CM5 chip; column KDeq (nM)
[2] = target: CCL2 (species not given); test: SPR, R17 variant on CM5 chip; column KD (nM), kinetic
[3] = target: CCL2 (species not given); test: SPR, R17 variant on CM5 chip; column kd x 10^-3 s-1
[4] = target: CCL2 (species not given); test: SPR, R17 variant on CM5 chip; column ka x 10^6 M-1s-1
[5] = target: CCL3 (species not given); test: SPR, R17 variant on CM5 chip; column KDeq (nM); ka, kd, KD printed n/a
human CCL3 = target: T3, human CCL3 (human, UniProt P10147 23-92); test: SPR, R17 264GG(G)DS267 on CM5 chip, hCCL3 injected
T3 construct: also called hCCL3
T3 sequence: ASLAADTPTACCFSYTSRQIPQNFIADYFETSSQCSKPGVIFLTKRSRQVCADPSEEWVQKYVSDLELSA

T1 sequence (P10148 24-148 limits assumed): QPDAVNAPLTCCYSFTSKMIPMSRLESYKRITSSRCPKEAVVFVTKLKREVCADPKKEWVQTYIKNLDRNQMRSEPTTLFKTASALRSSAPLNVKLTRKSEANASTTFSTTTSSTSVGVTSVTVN

B1: R17 266NAGAQ270 (R17 with 266DSGSE270 mutated to 266NAGAQ270), C-terminal His construct (receptor)
chain: GPVGEPVASEINEASKVSSRLLTQDILFRKDRQATISLPIKLPVEDIITQTCDKITYGPLKFLDLLEKETAVLPLSTDITCPACLGRAVLVGKWECPAHVAVNESDLTVFGPNKEEHVPQFVTVQQPSDGKMQRLFFAKFLGTEESLAVLRVPGPDGHLCIQEALIHFKELSGAGVCSLWKANDSREEGLEMKQVDCLETTVLENQTCIATTLSKKIYHRLYCGERLMTGGQVSTRVLLTALGFYKRQPYTFHRVPKGMVYVHLINAGAQDYMEYSECEEVTPGRYEDKQISYTFYTDLFQTADGEPVLASVWGTSGLKDSAYESCAFVIPTKGRRKLVPRRIMSKCYPFRLTYHPSTMTVRLDVRVEKHHGATDQGFVFLKMESGTYSEGREYYLDRVLWGEDSSTNNVLQ
binding result (murine CCL2): no binding
Kd (murine CCL3): 2.9 nM
koff (murine CCL3): 0.061 s⁻¹
kon (murine CCL3): 3.1e+07 M⁻¹ s⁻¹
t1/2 (murine CCL3): 11.2 s

B2: R17GAG1 (R17 with residues 29 to 32 RKDR mutated to EDDE), C-terminal His construct (receptor)
chain: GPVGEPVASEINEASKVSSRLLTQDILFEDDEQATISLPIKLPVEDIITQTCDKITYGPLKFLDLLEKETAVLPLSTDITCPACLGRAVLVGKWECPAHVAVNESDLTVFGPNKEEHVPQFVTVQQPSDGKMQRLFFAKFLGTEESLAVLRVPGPDGHLCIQEALIHFKELSGAGVCSLWKANDSREEGLEMKQVDCLETTVLENQTCIATTLSKKIYHRLYCGERLMTGGQVSTRVLLTALGFYKRQPYTFHRVPKGMVYVHLIDSGSEDYMEYSECEEVTPGRYEDKQISYTFYTDLFQTADGEPVLASVWGTSGLKDSAYESCAFVIPTKGRRKLVPRRIMSKCYPFRLTYHPSTMTVRLDVRVEKHHGATDQGFVFLKMESGTYSEGREYYLDRVLWGEDSSTNNVLQ
notes: not shown: C-terminal 8-His tag
Kd [1]: 31 nM
Kd [2]: 10 nM
koff [3]: 0.0137 s⁻¹
kon [4]: 1.2e+06 M⁻¹ s⁻¹
Kd [5]: 0.8 nM

B3: R17GAG2 (R17 with residues 333 to 337 KGRRK mutated to DGEED), C-terminal His construct (receptor)
chain: GPVGEPVASEINEASKVSSRLLTQDILFRKDRQATISLPIKLPVEDIITQTCDKITYGPLKFLDLLEKETAVLPLSTDITCPACLGRAVLVGKWECPAHVAVNESDLTVFGPNKEEHVPQFVTVQQPSDGKMQRLFFAKFLGTEESLAVLRVPGPDGHLCIQEALIHFKELSGAGVCSLWKANDSREEGLEMKQVDCLETTVLENQTCIATTLSKKIYHRLYCGERLMTGGQVSTRVLLTALGFYKRQPYTFHRVPKGMVYVHLIDSGSEDYMEYSECEEVTPGRYEDKQISYTFYTDLFQTADGEPVLASVWGTSGLKDSAYESCAFVIPTDGEEDLVPRRIMSKCYPFRLTYHPSTMTVRLDVRVEKHHGATDQGFVFLKMESGTYSEGREYYLDRVLWGEDSSTNNVLQ
notes: as for B2
Kd [1]: 40 nM
Kd [2]: 9.5 nM
koff [3]: 0.012 s⁻¹
kon [4]: 1.2e+06 M⁻¹ s⁻¹
Kd [5]: 0.31 nM

B4: R17 264GG(G)DS267 chemokine null mutant (264LIDS267 replaced by 264GG(G)DS267, with a glycine insert (receptor)
chain: GPVGEPVASEINEASKVSSRLLTQDILFRKDRQATISLPIKLPVEDIITQTCDKITYGPLKFLDLLEKETAVLPLSTDITCPACLGRAVLVGKWECPAHVAVNESDLTVFGPNKEEHVPQFVTVQQPSDGKMQRLFFAKFLGTEESLAVLRVPGPDGHLCIQEALIHFKELSGAGVCSLWKANDSREEGLEMKQVDCLETTVLENQTCIATTLSKKIYHRLYCGERLMTGGQVSTRVLLTALGFYKRQPYTFHRVPKGMVYVHGGGDSGSEDYMEYSECEEVTPGRYEDKQISYTFYTDLFQTADGEPVLASVWGTSGLKDSAYESCAFVIPTKGRRKLVPRRIMSKCYPFRLTYHPSTMTVRLDVRVEKHHGATDQGFVFLKMESGTYSEGREYYLDRVLWGEDSSTNNVLQ
binding result (human CCL3): no binding (tested: 100 nM)
